According to article PMC3223699 (Cell Death & Disease, 2011):
Ends that are not written are not given here.

Legend:
P. falciparum = settings: asexual stage P. falciparum; ref [30], [31]; cited from earlier work
P. falciparum 3D7 = test: Recovery of treated parasite culture after peptide removal; type: cell-based, Plasmodium falciparum; settings: 50 μM (~EC50), removed at 4 h, then grown 24 h
[1] = biological target: recombinant PfClpQ, mature region (38-170 aa) (P. falciparum); test: SPR

## CCN(CC)CCCC(C)Nc1ccnc2cc(Cl)ccc12 (centres unmarked) [chloroquine]
P. falciparum
  apoptosis-like features (in words): loss of mitochondrial membrane potential (Δψm), activation of caspase-like cytseine proteases and nuclear DNA fragmentation

## FIKQYDLKKYII [FI-peptide]
P. falciparum 3D7
  growth inhibition after peptide removal at 4 h: < 20%

## FIKQYDLKKYII [FI-peptide, 12-amino-acid synthetic peptide corresponding to the C terminus of PfClpY]
[1]
  Kd: 62.4 µM
  koff: 0.00976 s⁻¹
  kon: 157 M⁻¹ s⁻¹
